Assay results published in publication PMC2764420.
Like-named read-outs stand apart in the source and are kept apart here.

Key:
Tn10 transposase [1] = experiment: cross-linking
Tn10 transposase [2] = experiment: cross-linking; remark: listed apart in the source
[3] = target: folded Tn10 transpososome (UniProt P0A6X7); experiment: native gel or EMSA
[4] = target: pre-unfolded Tn10 transpososome; experiment: native gel or EMSA

UniProt P0A6X7, sequence (P0A6X7 whole entry, looked up): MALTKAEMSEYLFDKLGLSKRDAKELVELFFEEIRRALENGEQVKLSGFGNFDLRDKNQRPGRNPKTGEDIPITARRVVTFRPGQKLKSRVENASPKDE

Row | Molecule | stoichiometry N (Tn10 transposase [1]) | stoichiometry N (Tn10 transposase [2]) | percent of transpososome converted to an H-NS form at 6 nM H-NS [3] [%] | Kd [4] [nM] | percent of transpososome converted to an H-NS-bound form [4] [%]
1 | Tn10 transposase (enzyme) | 2 | 2 |  |  | 
2 | H-NS (histone-like nucleoid-structuring protein), wild type (natural protein) MSEALKILNNIRTLRAQARECTLETLEEMLEKLEVVVNERREEESAAAAEVEERTRKLQQYREMLIADGIDPNELLNSLAAVKSGTKAKRAQRPAKYSYVDENGETKTWTGQGRTPAVIKKAMDEQGKSLDDFLIKQ |  |  | 5 | 0.3 | > 95
